Assay results as given in the supplement of paper PMC11246515.
± gives the standard deviation of the averaged measurements.

Assay: total protein half-life in vivo (active degradation + dilution); higher = more stable protein
[1] = E. coli NCM3722 delta-clpP delta-lon delta-hslV, growth: N-lim chemostat, doubling time 6 h
[2] = E. coli NCM3722 delta-clpP, growth: N-lim chemostat, doubling time 6 h
[3] = E. coli NCM3722 delta-hslV, growth: N-lim chemostat, doubling time 6 h
[4] = E. coli NCM3722 delta-lon, growth: N-lim chemostat, doubling time 6 h
[5] = E. coli NCM3722 delta-smpB, growth: N-lim chemostat, doubling time 6 h
[6] = wild type E. coli NCM3722, growth: C-lim chemostat, doubling time 3 h
[7] = wild type E. coli NCM3722, growth: C-lim chemostat, doubling time 6 h
[8] = wild type E. coli NCM3722, growth: C-lim chemostat, doubling time 12 h
[9] = wild type E. coli NCM3722, growth: N-lim chemostat, doubling time 6 h
[10] = wild type E. coli NCM3722, growth: N-lim chemostat, doubling time 12 h
[11] = wild type E. coli NCM3722, growth: P-lim chemostat, doubling time 6 h
[12] = wild type E. coli NCM3722, growth: P-lim chemostat, doubling time 12 h

| Sequence | total protein half-life in vivo [1] [h] | total protein half-life in vivo [2] [h] | total protein half-life in vivo [3] [h] | total protein half-life in vivo [4] [h] | total protein half-life in vivo [5] [h] | total protein half-life in vivo [6] [h] | total protein half-life in vivo [7] [h] | total protein half-life in vivo [8] [h] | total protein half-life in vivo [9] [h] | total protein half-life in vivo [10] [h] | total protein half-life in vivo [11] [h] | total protein half-life in vivo [12] [h] |
| --- | --- | --- | --- | --- | --- | --- | --- | --- | --- | --- | --- | --- |
| MKQIRLLAQYYVDLMMKLGLVRFSMLLALALVVLAIVVQMAVTMVLHGQVESIDVIRSIFFGLLITPWAVYFLSVVVEQLEESRQRLSRLVQKLEEMRERDLSLNVQLKDNIAQLNQEIAVREKAEAELQETFGQLKIEIKEREETQIQLEQQSSFLRSFLDASPDLVFYRNEDKEFSGCNRAMELLTGKSEKQLVHLKPADVYSPEAAAKVIETDEKVFRHNVSLTYEQWLDYPDGRKACFEIRKVPYYDRVGKRHGLMGFGRDITERKRYQDALERASRDKTTFISTISHELRTPLNGIVGLSRILLDTELTAEQEKYLKTIHVSAVTLGNIFNDIIDMDKMERRKVQLDNQPVDFTSFLADLENLSALQAQQKGLRFNLEPTLPLPHQVITDGTRLRQILWNLISNAVKFTQQGQVTVRVRYDEGDMLHFEVEDSGIGIPQDELDKIFAMYYQVKDSHGGKPATGTGIGLAVSRRLAKNMGGDITVTSEQGKGSTFTLTIHAPSVAEEVDDAFDEDDMPLPALNVLLVEDIELNVIVARSVLEKLGNSVDVAMTGKAALEMFKPGEYDLVLLDIQLPDMTGLDISRELTKRYPREDLPPLVALTANVLKDKQEYLNAGMDDVLSKPLSVPALTAMIKKFWDTQDDEESTVTTEENSKSEALLDIPMLEQYLELVGPKLITDGLAVFEKMMPGYVSVLESNLTAQDKKGIVEEGHKIKGAAGSVGLRHLQQLGQQIQSPDLPAWEDNVGEWIEEMKEEWRHDVEVLKAWVAKATKK [P0AEC3] | 5.863 ± 0.04 | 6.27 ± 0.077 | 5.797 ± 0.042 | 5.21 ± 0.38 | 5.568 ± 0.012 | 3.09 ± 0.14 | 5.88 ± 0.086 | 10.9 ± 0.17 | 5.54 ± 0.18 | 10.5 ± 1 | 5.69 ± 0.2 | 11.4 ± 0.22 |
| MEWIADPSIWAGLITLIVIELVLGIDNLVFIAILAEKLPPKQRDRARVTGLLLAMLMRLLLLASISWLVTLTQPLFSFRSFTFSARDLIMLFGGFFLLFKATMELNERLEGKDSNNPTQRKGAKFWGVVTQIVVLDAIFSLDSVITAVGMVDHLLVMMAAVVIAISLMLMASKPLTQFVNSHPTIVILCLSFLLMIGFSLVAEGFGFVIPKGYLYAAIGFSVMIEALNQLAIFNRRRFLSANQTLRQRTTEAVMRLLSGQKEDAELDAETASMLVDHGNQQIFNPQERRMIERVLNLNQRTVSSIMTSRHDIEHIDLNAPEEEIRQLLERNQHTRLVVTDGDDAEDLLGVVHVIDLLQQSLRGEPLNLRVLIRQPLVFPETLPLLPALEQFRNARTHFAFVVDEFGSVEGIVTLSDVTETIAGNLPNEVEEIDARHDIQKNADGSWTANGHMPLEDLVQYVPLPLDEKREYHTIAGLLMEYLQRIPKPGEEVQVGDYLLKTLQVESHRVQKVQIIPLRKDGEMEYEV | 6.68 ± 1.2 | 6.24 ± 0.2 | 6.92 ± 0.87 | 6.34 ± 0.46 | 6.27 ± 0.67 | – | – | 14.9 ± 0.52 | 6.24 ± 0.23 | 12.28 ± 0.022 | 6.598 ± 0.06 | 11.1 ± 2 |
| MELHCPQCQHVLDQDNGHARCRSCGEFIEMKALCPDCHQPLQVLKACGAVDYFCQHGHGLISKKRVEFVLA | 5.52 ± 2.3 | 4.63 | – | – | – | – | – | 4.37 | 6.43 | 5.69 | – | > 16 |
| MLKLTDITWLYHHLPMRFSLTVERGEQVAILGPSGAGKSTLLNLIAGFLTPASGSLTIDGVDHTTMPPSRRPVSMLFQENNLFSHLTVAQNIGLGLNPGLKLNAVQQGKMHAIARQMGIDNLMARLPGELSGGQRQRVALARCLVREQPILLLDEPFSALDPALRQEMLTLVSTSCQQQKMTLLMVSHSVEDAARIATRSVVVADGRIAWQGMTNELLSGKASASALLGITG | 4.96 ± 0.61 | 5.67 ± 0.82 | 6.21 ± 1.1 | 5.79 ± 0.26 | 5.31 ± 0.54 | 3.03 ± 0.11 | 5.94 ± 0.4 | 10.9 ± 0.42 | 5.13 ± 0.15 | 12.6 ± 1.7 | 5.54 ± 0.3 | 11.98 ± 0.032 |
| MMSGEHTLKAVRGSFIDVTRTIDNPEEIASALRFIEDGLLLIKQGKVEWFGEWENGKHQIPDTIRVRDYRGKLIVPGFVDTHIHYPQSEMVGAYGEQLLEWLNKHTFPTERRYEDLEYAREMSAFFIKQLLRNGTTTALVFGTVHPQSVDALFEAASHINMRMIAGKVMMDRNAPDYLLDTAESSYHQSKELIERWHKNGRLLYAITPRFAPTSSPEQMAMAQRLKEEYPDTWVHTHLCENKDEIAWVKSLYPDHDGYLDVYHQYGLTGKNCVFAHCVHLEEKEWDRLSETKSSIAFCPTSNLYLGSGLFNLKKAWQKKVKVGMGTDIGAGTTFNMLQTLNEAYKVLQLQGYRLSAYEAFYLATLGGAKSLGLDDLIGNFLPGKEADFVVMEPTATPLQQLRYDNSVSLVDKLFVMMTLGDDRSIYRTYVDGRLVYERN | 5.05 ± 0.34 | 3.95 ± 0.22 | 4.26 ± 0.28 | 4.12 ± 0.085 | 3.79 ± 0.042 | 3.26 ± 0.59 | 6.35 ± 1.1 | 10.2 ± 0.27 | 3.78 ± 0.16 | 7.14 ± 1.4 | 5.87 | – |
